{
  "source": "patent US20240199740A1",
  "about": "(Ablynx, published 2024)",
  "key": {"[1]": {"biological_target": "T1, human TCR/CD3 on purified primary human T cells (human, UniProt P01848 1-140; P01850 1-176)", "T1 construct": "whole, on cells; Native TCR alpha/beta with the CD3 chains on T cells isolated from buffy coat blood; also called purified primary T cells", "T1 sequence (P01848 whole entry, chain 1 of 2)": "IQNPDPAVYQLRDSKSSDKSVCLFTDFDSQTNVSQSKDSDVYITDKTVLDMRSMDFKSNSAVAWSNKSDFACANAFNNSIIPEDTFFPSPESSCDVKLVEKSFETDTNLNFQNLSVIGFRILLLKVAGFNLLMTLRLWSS", "T1 sequence (P01850 whole entry, chain 2 of 2)": "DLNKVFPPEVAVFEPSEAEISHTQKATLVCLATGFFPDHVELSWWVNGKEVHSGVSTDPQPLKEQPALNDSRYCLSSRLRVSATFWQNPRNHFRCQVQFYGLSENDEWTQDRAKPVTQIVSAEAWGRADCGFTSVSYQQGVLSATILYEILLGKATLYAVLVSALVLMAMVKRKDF", "assay": "flow cytometry, purified primary human T cells", "protocol": "Dose-dependent binding of the purified monovalent anti-TCR Nanobodies to human TCRα/β (2XN9)/CD3 expressed on CHO-K1 cells and to purified primary human T cells was evaluated by flow cytometry. In brief, cells were harvested and transferred to a V-bottom 96-well plate (1×10⁵ cells/well) and serial dilutions of Nanobodies (starting from 1 pM) were allowed to associate for 30 minutes at 4° C. in FACS buffer. […] After incubation, cells were washed 3 times with FACS Buffer. Subsequently, cells were resuspended in FACS buffer supplemented with 5 nM TOPRO3 (Molecular Probes, T3605) to distinguish live from dead cells, which are removed during the gating procedure. Cells were analysed using a FACS Array flow cytometer (BD Biosciences) and Flowing Software. First a P1 population which represented more than 80% of the total cell population was selected based on FSC-SSC distribution. In this gate, 10000 cells were counted during acquisition. From this population the TOPRO+ cells (dead cells) were excluded and the median PE value was calculated."}, "[2]": {"biological_target": "T2, human CD3 expressed on HEK293H cells (human, UniProt P04234 22-171; P09693 23-182; P07766 23-207; P20963 22-164)", "T2 construct": "also called HEK293H CD3; HEK293H human CD3", "T2 sequence (P04234 22-171 limits assumed, chain 1 of 4)": "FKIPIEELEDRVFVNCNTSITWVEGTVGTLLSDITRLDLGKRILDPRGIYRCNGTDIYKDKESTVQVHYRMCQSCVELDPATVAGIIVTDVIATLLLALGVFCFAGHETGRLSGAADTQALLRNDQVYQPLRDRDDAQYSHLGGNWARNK", "T2 sequence (P09693 23-182 limits assumed, chain 2 of 4)": "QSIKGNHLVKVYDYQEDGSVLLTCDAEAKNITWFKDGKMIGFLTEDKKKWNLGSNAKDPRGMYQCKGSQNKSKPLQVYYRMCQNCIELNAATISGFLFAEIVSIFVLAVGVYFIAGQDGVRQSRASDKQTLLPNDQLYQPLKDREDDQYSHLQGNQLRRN", "T2 sequence (P07766 23-207 limits assumed, chain 3 of 4)": "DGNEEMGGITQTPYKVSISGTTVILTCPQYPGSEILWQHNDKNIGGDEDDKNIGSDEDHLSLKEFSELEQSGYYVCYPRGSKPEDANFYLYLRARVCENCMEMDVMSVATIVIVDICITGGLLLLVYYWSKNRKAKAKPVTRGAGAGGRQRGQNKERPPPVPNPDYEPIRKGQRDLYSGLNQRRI", "T2 sequence (P20963 22-164 limits assumed, chain 4 of 4)": "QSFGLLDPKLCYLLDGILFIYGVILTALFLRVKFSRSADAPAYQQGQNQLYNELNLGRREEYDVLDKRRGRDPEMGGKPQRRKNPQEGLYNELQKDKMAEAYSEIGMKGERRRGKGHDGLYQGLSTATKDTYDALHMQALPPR", "assay": "flow cytometry, HEK293H human CD3 cells", "excerpt": "The parental HEK293H cell line was included as TCR/CD3 negative cell line."}, "[3]": {"biological_target": "T3, soluble recombinant cynomolgus TCR α/β-zipper protein (cynomolgus/rhesus monkey)", "T3 construct": "Made in house in CHOK1SV cells; also called recombinant cynomolgus soluble TCRα/β-zipper protein; cynomolgus/rhesus monkey TCR α/β; not shown: the zipper protein (O'Shea et al. 1993) fused C-terminally to each chain, and any linker to it", "T3 alpha": "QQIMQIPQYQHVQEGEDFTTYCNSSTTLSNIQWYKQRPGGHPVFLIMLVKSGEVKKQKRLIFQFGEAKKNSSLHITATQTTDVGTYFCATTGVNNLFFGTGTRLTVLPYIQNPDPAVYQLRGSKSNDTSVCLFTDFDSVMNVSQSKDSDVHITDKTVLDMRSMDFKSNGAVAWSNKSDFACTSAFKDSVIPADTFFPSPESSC", "T3 beta": "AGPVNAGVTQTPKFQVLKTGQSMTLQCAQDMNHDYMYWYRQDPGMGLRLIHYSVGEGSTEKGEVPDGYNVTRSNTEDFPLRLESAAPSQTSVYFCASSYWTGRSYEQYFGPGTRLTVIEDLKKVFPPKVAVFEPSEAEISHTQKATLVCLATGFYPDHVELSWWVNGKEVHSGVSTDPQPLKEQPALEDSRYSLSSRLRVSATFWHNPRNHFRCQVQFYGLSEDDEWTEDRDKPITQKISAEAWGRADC", "assay": "BLI (Octet RED384), cynomolgus TCR-zipper protein immobilized", "procedure": "Binding affinities were measured using Bio-Layer Interferometry (BLI) on an Octet RED384 instrument (Pall ForteBio Corp.). […] For kinetic analysis, sensors were first dipped into running buffer (10 mM Hepes, 150 mM NaCl, 0.05% p20, pH7.4 from GE Healthcare Life Sciences) to determine baseline setting. […] Affinity constants (KD) were calculated applying a 1:1 interaction model using the ForteBio Data Analysis software."}, "[4]": {"biological_target": "T3, soluble recombinant cynomolgus TCR …", "assay": "ELISA, directly coated soluble cynomolgus TCR-zipper protein", "procedure": "Quality of the TCR α/β zipper proteins was assessed in an ELISA binding assay. […] After an overnight incubation, plates were washed and blocked with PBS+1% casein for 1 h at room temperature. […] The reaction was stopped with 2M H₂SO₄ and the dose dependent binding was determined by measuring the OD at 450 nm using the Tecan sunrise 4 (FIG. 2)."}, "[5]": {"biological_target": "cynomolgus TCR/CD3 expressed on cells (cynomolgus)", "assay": "cell-based or functional assay"}, "[6]": {"biological_target": "T4, human CD123 expressed on cells (human, UniProt P26951 19-378)", "assay": "cell-based or functional assay"}, "[7]": {"biological_target": "T4, human CD123 expressed on cells", "assay": "cell-based or functional assay", "remark": "listed apart in the source"}, "[8]": {"biological_target": "T4, human CD123 expressed on cells", "assay": "cell-based or functional assay", "remark": "listed apart in the source"}, "[9]": {"biological_target": "T5, cynomolgus TCR/CD3 expressed on cells (cynomolgus)", "T5 construct": "whole, on cells; Native complex with CD3 chains; the cell type is named under assay or readout; also called cyno TCR/CD3; CD3/TCR expressed on HSC-F", "assay": "flow cytometry competition, HSC-F cells, competitor T017000099 (500 nM)", "protocol": "Cells were washed and incubated with Propidium Iodine to stain for dead cells, which are then removed during the gating procedure. The cells were then analysed via a BD FACSArray. First a P1 population which represented more than 80% of the total cell population was selected based on FSC-SSC distribution. In this gate, 10000 cells were counted during acquisition. From this population the PI+ cells (dead cells) were excluded and the median APC value was calculated."}, "[10]": {"biological_target": "T4, human CD123 expressed on cells", "assay": "flow cytometry competition, MOLM-13 cells, competitor A0110056A10-Alexa647 (0.4 nM)", "protocol": "(§1) Next to binding to the MOLM-13 and CHO Flp-In huCD123 cells, binding to cyno CD123 transfected HEK Flp-In cells was assessed."}, "[11]": {"biological_target": "T6, cynomolgus CD123 expressed on HEK Flp-In cells (cynomolgus)", "T6 construct": "EHH61867.1; also called cyCD123; cyno CD123", "T6 chain": "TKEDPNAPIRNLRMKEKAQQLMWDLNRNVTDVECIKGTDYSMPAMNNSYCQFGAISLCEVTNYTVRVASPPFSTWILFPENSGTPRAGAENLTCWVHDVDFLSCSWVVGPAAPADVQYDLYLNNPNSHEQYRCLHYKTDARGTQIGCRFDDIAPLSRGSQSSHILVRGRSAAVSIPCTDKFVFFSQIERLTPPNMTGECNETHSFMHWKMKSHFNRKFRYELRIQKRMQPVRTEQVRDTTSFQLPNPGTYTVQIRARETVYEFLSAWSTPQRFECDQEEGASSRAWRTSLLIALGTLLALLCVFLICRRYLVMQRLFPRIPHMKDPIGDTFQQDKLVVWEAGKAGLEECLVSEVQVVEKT", "assay": "flow cytometry competition, HEK Flp-In cyCD123 cells, competitor A0110056A10-Alexa647 (0.9 nM)", "protocol": "as §1"}, "[12]": {"biological_target": "T4, human CD123 expressed on cells", "assay": "flow cytometry competition, CHO Flp-In huCD123 cells, competitor A0110056A10-Alexa647 (0.9 nM)", "protocol": "as §1"}, "[13]": {"biological_target": "T5, cynomolgus TCR/CD3 expressed on cells", "assay": "cell-based or functional assay", "remark": "listed apart in the source"}, "[14]": {"biological_target": "T4, human CD123 expressed on cells", "assay": "cell-based or functional assay", "remark": "listed apart in the source"}, "human CD123 [15]": {"biological_target": "T7, human CD123 (human, UniProt P26951 19-378)", "T7 sequence (P26951 19-378 limits assumed)": "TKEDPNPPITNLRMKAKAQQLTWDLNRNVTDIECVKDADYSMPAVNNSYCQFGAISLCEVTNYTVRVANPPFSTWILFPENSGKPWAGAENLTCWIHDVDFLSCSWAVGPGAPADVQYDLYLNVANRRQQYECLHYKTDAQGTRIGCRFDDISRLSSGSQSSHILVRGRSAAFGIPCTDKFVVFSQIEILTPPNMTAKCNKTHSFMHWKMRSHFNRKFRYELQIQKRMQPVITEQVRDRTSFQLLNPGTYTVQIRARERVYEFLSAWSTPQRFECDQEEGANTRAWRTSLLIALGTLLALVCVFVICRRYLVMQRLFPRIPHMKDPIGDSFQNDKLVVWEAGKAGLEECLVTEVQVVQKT", "assay": "cell-based or functional assay"}, "human CD123 [16]": {"biological_target": "T7, human CD123", "assay": "cell-based or functional assay", "remark": "listed apart in the source"}, "human CD123 [17]": {"biological_target": "T7, human CD123", "assay": "cell-based or functional assay", "remark": "listed apart in the source"}, "human CD123 [18]": {"biological_target": "T7, human CD123", "assay": "cell-based or functional assay", "remark": "listed apart in the source"}},
  "data": [
    {"binder": "T0170055A02 (VHH, also called T0170PMP055A02; T01700055A02; not shown: C-terminal triple Flag, His6 tag) VHH: EVQLVESGGGLVQPGGSLRLSCAASGDVHKINILGWYRQAPAKEREMVAHITIGDATDYADSAKGRFTISRDEAKNMVYLQMNSLKPEDTAVYFCRAYSRIYPYNYWGQGTLVTVSS", "values": [
      {"measurement": "EC50", "setting": "[1]", "value": 91, "unit": "nM"},
      {"measurement": "binding result", "setting": "[2]", "value": "no binding (tested: 1e-6 M)"},
      {"measurement": "Kd", "setting": "[3]", "value": 210, "unit": "nM"},
      {"measurement": "EC50", "setting": "[4]", "value": 160, "unit": "nM"}
    ]},
    {"binder": "T0170056G05 (VHH, Monovalent anti-TCR Nanobody; also called T0170PMP056G05; T01700056G05; not shown: C-terminal triple Flag, His6 tag) VHH: EVQLVESGGGLVQPGGSLRLSCVASGDVHKINFLGWYRQAPGKEREKVAHISIGDQTDYADSAKGRFTISRDESKNMVYLQMNSLKPEDTAVYFCRAFSRIYPYDYWGQGTLVTVSS", "values": [
      {"measurement": "EC50", "setting": "[1]", "value": 91, "unit": "nM"},
      {"measurement": "binding result", "setting": "[2]", "value": "no binding (tested: 1e-6 M)"},
      {"measurement": "Kd", "setting": "[3]", "value": 150, "unit": "nM"},
      {"measurement": "EC50", "setting": "[4]", "value": 77, "unit": "nM"}
    ]},
    {"binder": "T017000128 (bispecific antibody, Multispecific Nanobody polypeptide expressed in Pichia) DVQLVESGGGLVQPGGSLRLSCVASGDVHKINFLGWYRQAPGKEREKVAHISIGDQTDYADSAKGRFTISRDESKNMVYLQMNSLKPEDTAVYFCRAFSRIYPYDYWGQGTLVTVSSGGGGSGGGGSGGGGSGGGGSGGGGSGGGGSGGGGSEVQLVESGGGLVQAGGSLRLSCAASGITSKINDMGWYRQTPGNYREWVASITATGTTNYRDSVKGRFTISRDNAKSTVYLQMNSLKPEDTTVYYCNTFPPISNFWGQGTLVTVSSA", "values": [
      {"measurement": "% lysis, redirected cyno T cell mediated killing of KG1a cells, flow cytometry", "setting": "[5]", "value": 38, "unit": "%"},
      {"measurement": "EC50 (M), redirected cyno T cell mediated killing of KG1a cells, flow cytometry", "setting": "[5]", "value": "3.2e-10", "unit": "M"},
      {"measurement": "% lysis, redirected human T cell mediated killing of MOLM-13 cells, flow cytometry, E:T 10:1", "setting": "[6]", "value": 20, "unit": "%"},
      {"measurement": "EC50 (M), redirected human T cell mediated killing of MOLM-13 cells, flow cytometry, E:T 10:1", "setting": "[6]", "value": "1.5e-10", "unit": "M"},
      {"measurement": "EC50 (M), human IL-6 secretion during human T cell mediated killing of CD123 transfected adherent target cells", "setting": "[7]", "value": "6.9e-11", "unit": "M"},
      {"measurement": "% lysis, redirected human T cell mediated killing of KG1a cells, flow cytometry, E:T 10:1", "setting": "[8]", "value": 28, "unit": "%"},
      {"measurement": "EC50 (M), redirected human T cell mediated killing of KG1a cells, flow cytometry, E:T 10:1", "setting": "[8]", "value": "8.7e-10", "unit": "M"},
      {"measurement": "IC50", "setting": "[9]", "value": 630, "unit": "nM"},
      {"measurement": "IC50", "setting": "[10]", "value": 3.1, "unit": "nM"},
      {"measurement": "IC50", "setting": "[11]", "value": 31, "unit": "nM"},
      {"measurement": "IC50", "setting": "[12]", "value": 5.8, "unit": "nM"},
      {"measurement": "% lysis, redirected cyno T cell mediated killing of MOLM-13 cells, flow cytometry, E:T 10:1", "setting": "[13]", "value": 50, "unit": "%"},
      {"measurement": "EC50 (M), redirected cyno T cell mediated killing of MOLM-13 cells, flow cytometry, E:T 10:1", "setting": "[13]", "value": "1.8e-10", "unit": "M"},
      {"measurement": "EC50 (M), IFN-γ secretion by cynomolgus T cells during killing of CD123 transfected adherent target cells", "setting": "[14]", "value": "1e-10", "unit": "M"},
      {"measurement": "EC50 (M), IFN-γ secretion by human T cells during killing of CD123 transfected adherent target cells", "setting": "[14]", "value": "8.6e-11", "unit": "M"}
    ]},
    {"binder": "T017000139 (bispecific antibody) DVQLVESGGGLVQPGGSLRLSCVASGDVHKINFLGWYRQAPGKEREKVAHISIGDQTDYADSAKGRFTISRDESKNMVYLQMNSLKPEDTAVYFCRAFSRIYPYDYWGQGTLVTVSSGGGGSGGGGSGGGGSGGGGSGGGGSGGGGSGGGGSEVQLVESGGGLVQAGGPLRLSCAASGRTFSSYVMGWFRQAPGKEREFVAAIYWSNGKTQYTDSVKGRFTISGDNAKNTVYLQMNSLNPEDTAVYYCVADKDETGFRTLPIAYDYWGQGTLVTVSSGGGGSGGGGSGGGGSGGGGSGGGGSGGGGSGGGGSEVQLVESGGGLVQAGGSLRLSCAASGITSKINDMGWYRQTPGNYREWVASITATGTTNYRDSVKGRFTISRDNAKSTVYLQMNSLKPEDTTVYYCNTFPPISNFWGQGTLVTVSSA", "values": [
      {"measurement": "EC50 (M), human IL-6 secretion during redirected human T cell mediated killing of CD123 positive MOLM-13 cells (ELISA)", "setting": "human CD123 [15]", "value": "2.3e-11", "unit": "M"},
      {"measurement": "EC50 (M), redirected cynomolgus T cell mediated killing of MOLM-13 cells, flow cytometry, E:T 10:1", "setting": "human CD123 [16]", "value": "2.9e-11", "unit": "M"},
      {"measurement": "EC50 (M), redirected human T cell mediated killing of MOLM-13 cells, flow cytometry, E:T 10:1", "setting": "human CD123 [16]", "value": "2e-11", "unit": "M"},
      {"measurement": "% lysis, redirected cynomolgus T cell mediated killing of KG1a cells, flow cytometry, E:T 10:1", "setting": "human CD123 [17]", "value": 34, "unit": "%"},
      {"measurement": "% lysis, redirected human T cell mediated killing of KG1a cells, flow cytometry, E:T 10:1", "setting": "human CD123 [17]", "value": 67, "unit": "%"},
      {"measurement": "EC50 (M), redirected cynomolgus T cell mediated killing of KG1a cells, flow cytometry, E:T 10:1", "setting": "human CD123 [17]", "value": "1.7e-11", "unit": "M"},
      {"measurement": "EC50 (M), redirected human T cell mediated killing of KG1a cells, flow cytometry, E:T 10:1", "setting": "human CD123 [17]", "value": "8.1e-11", "unit": "M"},
      {"measurement": "EC50 (M), human IFN-γ secretion during redirected human T cell mediated killing of CD123 positive MOLM-13 cells (ELISA)", "setting": "human CD123 [18]", "value": "3.4e-10", "unit": "M"}
    ]}
  ]
}
